B1: Ypt35-3HA (natural protein, S. cerevisiae, UniProt P38815 1-214, looked up)
chain: MSDKISFLPPEPIQLLDEDSTEPELDIDSQQENEGPISASNSNDSTSHSNDCGATITRTRPRRSSSINANFSFQKAHVSDCTIVNGDHGTKFAVWRITVFLEPNLKAFAAKRESYKIQTYKRYSDFVRLRENLLTRIKTAKPEKLNCLQIPHLPPSVQWYSSWKYQEVNLNKDWLAKRQRGLEYFLNHIILNSSLVEMTKDILIQFLEPSKRVA
B2: Ypt35 P^10,12A -3HA (natural protein, S. cerevisiae, UniProt P38815 1-214, looked up)
chain: MSDKISFLPAEAIQLLDEDSTEPELDIDSQQENEGPISASNSNDSTSHSNDCGATITRTRPRRSSSINANFSFQKAHVSDCTIVNGDHGTKFAVWRITVFLEPNLKAFAAKRESYKIQTYKRYSDFVRLRENLLTRIKTAKPEKLNCLQIPHLPPSVQWYSSWKYQEVNLNKDWLAKRQRGLEYFLNHIILNSSLVEMTKDILIQFLEPSKRVA

Key:
[1] = biological target: Vps13 F^2465A Y^2466A ^GFP (S. cerevisiae, UniProt Q07878 1-3144, F^2465A | Y^2466A); test: co-IP
Vps13^GFP (wild type) = Vps13^GFP (wild type) (S. cerevisiae, UniProt Q07878 1-3144); test: co-IP

Binder | percent recovery relative to WT [1] | percent recovery relative to WT (Vps13^GFP (wild type))
B1 | 24% | 
B2 |  | 19%

From article doi:10.1101/2025.08.12.669934 (bioRxiv, 2025)
